The chains are these.
B1: HDV Ribozyme (parent)
chain: GGCCGGCAUGGUCCCAGCCUCCUCGCUGGCGCCGGCUGGGCAACAUUCCGAGGGGACCGUCCCCUCGGUAAUGGCGAAUGGGACCCA

This data set covers variants of B1. The data set can be described thus: self-cleavage, relative activity (ratio to wild type); higher = more cleavage; co-transcriptional.
Turning to GGCCGGCAUGGUCCCAGCCUCCUCGCUGUCGCCGGCUGGGCAACAUUCCGAGGGGACAGUCCCCUCGGUAAUGGCGAAUGGGACCCA [G29U C58A], the self-cleavage was 0.204. As to GGCCGGCAUGGUCCCAGCCUCCUCGCUGUCGCCGGCUGGGCAUCAUUCCGAGGGGACCGUCCCCUCGGUAAUGGCGAAUGGGACCCA [G29U A43U], the self-cleavage came to 0.095. For the variant GGCCGGCAUGGUCCCAGCCUCCUCGCUGUCGCCGGCUGGGCACCAUUCCGAGGGGACCGUCCCCUCGGUAAUGGCGAAUGGGACCCA [G29U A43C], the self-cleavage came out at 0.136. Consider GGCCGGCAUGGUCCCAGCCUCCUCGCUGCCGCCGGCUGGGCAACAUUCCGAGGGUACCGUCCCCUCGGUAAUGGCGAAUGGGACCCA [G29C G55U], for which the self-cleavage was 0.0396. The result for GGCCGGCAUGGUCCCAGCCUCCUCGCUGCCGCCGGCUGGGCAACAUUCCGAGGGAACCGUCCCCUCGGUAAUGGCGAAUGGGACCCA [G29C G55A] reads 0.166; that for GGCCGGCAUGGUCCCAGCCUCCUCGCUGUCGCCGGCUGGGCAACAUUCCGAGGGGACCGUCCCCUCGGUAAUGGCGAAUGGGUCCCA [G29U A83U], 0.102. Regarding GGCCGGCAUGGUCCCAGCCUCCUCGCUGUCGCCGGCUGGGCAACAUUCCGAGGGGACCGUCCCCUCGGUAAUGGCGAAUGGGACACA [G29U C85A], the self-cleavage was determined as 0.0941. The figure for GGCCGGCAUGGUCCCAGCCUCCUCGCUGGAGCCGGCUGGGGAACAUUCCGAGGGGACCGUCCCCUCGGUAAUGGCGAAUGGGACCCA [C30A C41G] is 0.0875; for GGCCGGCAUGGUCCCAGCCUCCUCGCUGUCGCCGGCUGGGCAACAGUCCGAGGGGACCGUCCCCUCGGUAAUGGCGAAUGGGACCCA [G29U U46G] it is 0.0386. The figure for GGCCGGCAUGGUCCCAGCCUCCUCGCUGUCGCCGGCUGGGCAACAAUCCGAGGGGACCGUCCCCUCGGUAAUGGCGAAUGGGACCCA [G29U U46A] is 0.0665; for GGCCGGCAUGGUCCCAGCCUCCUCGCUGUCGCCGGCGGGGCAACAUUCCGAGGGGACCGUCCCCUCGGUAAUGGCGAAUGGGACCCA [G29U U37G] it is 0.0723. Turning to GGCCGGCAUGGUCCCAGCCUCCUCGCUGGAGCCGGCUGGGCAACAUUGCGAGGGGACCGUCCCCUCGGUAAUGGCGAAUGGGACCCA [C30A C48G], the self-cleavage came to 0.467. The figure for GGCCGGCAUGGUCCCAGCCUCCUCGCUGCCGCCGGCUGGGCAACAUUCCGAUGGGACCGUCCCCUCGGUAAUGGCGAAUGGGACCCA [G29C G52U] is 0.

As for GGCCGGCAUGGUCCCAGCCUCCUCGCUGCCGCCGUCUGGGCAACAUUCCGAGGGGACCGUCCCCUCGGUAAUGGCGAAUGGGACCCA [G29C G35U], the self-cleavage amounted to 0.0554. The result for GGCCGGCAUGGUCCCAGCCUCCUCGCUGUCGCCGGCUGGGCAACAUUCCGAGGGGUCCGUCCCCUCGGUAAUGGCGAAUGGGACCCA [G29U A56U] reads 0.109; that for GGCCGGCAUGGUCCCAGCCUCCUCGCUGGAGCCGGCUGGGCAACAUUCCGAGGGGACCGUCCCCUCGGUAAUGGCGACUGGGACCCA [C30A A78C], 0.117; that for GGCCGGCAUGGUCCCAGCCUCCUCGCUGGAGCCGGCUGGGCAACAUUCCGAGGGGACCGUCCCCUCGGUAAUGGCGAUUGGGACCCA [C30A A78U], 0.237.

With GGCCGGCAUGGUCCCAGCCUCCUCGCUGCCGCCGGCUCGGCAACAUUCCGAGGGGACCGUCCCCUCGGUAAUGGCGAAUGGGACCCA [G29C G38C], the self-cleavage was 0.0489.

Take GGCCGGCAUGGUCCCAGCCUCCUCGCUGUCGCCCGCUGGGCAACAUUCCGAGGGGACCGUCCCCUCGGUAAUGGCGAAUGGGACCCA [G29U G34C]: the self-cleavage was found to be 0.146. In the case of GGCCGGCAUGGUCCCAGCCUCCUCGCUGCCGCCGGCUGGGCAACAUUCCGAGGGGACCGUCCCCUCGGUAAUGGCGAAUGGGACGCA [G29C C85G], the self-cleavage came out at 0.0978. The figure for GGCCGGCAUGGUCCCAGCCUCCUCGCUGCCGCCGGCUGGGCAACAUUCCGAGGGGACCGUCCCCUCGGUAAUGGCGAAUGGGACACA [G29C C85A] is 0.104; for GGCCGGCAUGGUCCCAGCCUCCUCGCUGUCGCCGGCUGGGCAACAUUCCGCGGGGACCGUCCCCUCGGUAAUGGCGAAUGGGACCCA [G29U A51C] it is 0.0898; for GGCCGGCAUGGUCCCAGCCUCCUCGCUGGAGCCGGCUGGGCAACAUUCCGAGGGGACCGUCCACUCGGUAAUGGCGAAUGGGACCCA [C30A C63A] it is 0.481. As for GGCCGGCAUGGUCCCAGCCUCCUCGCUGCCGCCGGCUGGGCAACAUUCCGAGGGGACCGUCCCCUCGGUAAUGUCGAAUGGGACCCA [G29C G74U], the self-cleavage came out at 0. With GGCCGGCAUGGUCCCAGCCUCCUCGCUGCCGCCGGCUGGGCAACAUUCCGAGGGGACCGUCCCCUCGGUAAUGACGAAUGGGACCCA [G29C G74A], the self-cleavage came to 0.0733.

On to GGCCGGCAUGGUCCCAGCCUCCUCGCUGGAGCCGGCUGGGCAACAUUCCGAGGGGACCGUCCCCUCGGUUAUGGCGAAUGGGACCCA [C30A A70U], for which the self-cleavage came out at 0.62. The result for GGCCGGCAUGGUCCCAGCCUCCUCGCUGUCGCCGGCUAGGCAACAUUCCGAGGGGACCGUCCCCUCGGUAAUGGCGAAUGGGACCCA [G29U G38A] reads 0.0656. The figure for GGCCGGCAUGGUCCCAGCCUCCUCGCUGUCGCCGGCUCGGCAACAUUCCGAGGGGACCGUCCCCUCGGUAAUGGCGAAUGGGACCCA [G29U G38C] is 0.0386; for GGCCGGCAUGGUCCCAGCCUCCUCGCUGUCGCCGGCUGGGCAACAUCCCGAGGGGACCGUCCCCUCGGUAAUGGCGAAUGGGACCCA [G29U U47C] it is 0.19; for GGCCGGCAUGGUCCCAGCCUCCUCGCUGUCGCCGGCUGGGCAACAUUCCGAGGUGACCGUCCCCUCGGUAAUGGCGAAUGGGACCCA [G29U G54U] it is 0.0449. As to GGCCGGCAUGGUCCCAGCCUCCUCGCUGCCUCCGGCUGGGCAACAUUCCGAGGGGACCGUCCCCUCGGUAAUGGCGAAUGGGACCCA [G29C G31U], the self-cleavage was 0.0755.

Consider GGCCGGCAUGGUCCCAGCCUCCUCGCUGGAGCCGGCUGGGCAUCAUUCCGAGGGGACCGUCCCCUCGGUAAUGGCGAAUGGGACCCA [C30A A43U], for which the self-cleavage is 0.0692.

Source of the values: the RNAGym collection of RNA variant scans (doi:10.7554/elife.80360).
